# B1: BI-505 IgG1 N297Q: BI-505 variant with abolished FcγR-binding (antibody, V domains shown)
# VH: EVQLLESGGGLVQPGGSLRLSCAASGFTFSNAWMSWVRQAPGKGLEWVAFIWYDGSNKYYADSVKGRFTISRDNSKNTLYLQMNSLRAEDTAVYYCARYSGWYFDYWGQGTLVTVSS
# VL: QSVLTQPPSASGTPGQRVTISCTGSSSNIGAGYDVHWYQQLPGTAPKLLIYDNNNRPSGVPDRFSGSKSGTSASLAISGLRSEDEADYYCQSYDSSLSAWLFGGGTKLTVLG
# B2: BI-505 IgG4: BI-505 variant with reduced FcγR-binding compared to wildtype BI-505 IgG1 (antibody, V domains shown)
# VH: B1 VH
# VL: B1 VL
# What was measured:
# primary patient MM cells = assay: SCID-hu mouse model of multiple myeloma; type: in vivo
# Protocol: Bone marrow cells (>20% plasma cells) from myeloma patients (two patients in experiment 1 [top panel] and two different patients in experiment 2 [lower panel]) were injected into transplanted human fetal bones of SCID-hu mice. Four weeks after myeloma cell inoculation mice were divided into four groups to yield similar mean hIgG levels between groups, each group comprising mice grafted with MM cells from the different patient donors used in the experiment, and twice weekly treatment with 2 mg/kg BI-505, 1 mg/kg bortezomib or 2 mg/kg control human IgG was started (arrow). […] Graphs show mean hIgG concentrations.
# Primary human MM cells depend on interactions with bone marrow stromal cells to proliferate and survive. The SCID-hu mouse harbors a human microenvironment where primary patient MM cells proliferate and induce pathology similar to human clinical MM (Yaccoby et al., 1998). MM cell derived human IgG titers were detected (>10 μg/ml) in the serum of SCID-hu mice four weeks after implantation of human MM cells to transplanted human bones, at which time treatment with antibodies (2 mg/kg) or bortezomib (1 mg/kg) began. Human IgG titers increased steadily in control treated SCID-hu mice over the course of experimentation to reach maximal concentrations of 40±5 μg/ml just before sacrifice (FIG. 18B and FIG. 19). […] Two independent experiments were performed with similar results (FIG. 18B and FIG. 19), each with MM cells from two different patient donors (n=4).
# Human fetal femurs and tibias, obtained at 17 to 22 gestational weeks, were cut into fragments and implanted subcutaneously in SCID mice (SCID-hu) at age 6 to 8 weeks. Each animal was implanted with one bone fragment. Four weeks after bone implantation, 2 to 14×10^6 bone marrow cells from each patient (two patients per experiment for a total of four patients in two independent experiments, n=4), containing>20% plasma cells were injected directly into the human bone of 6 to 8 SCID-hu mice in a final volume of 30 to 40 μl of phosphate-buffered saline (PBS). One group of mice was implanted with bone only and served as “healthy” bone control. Mouse sera were serially monitored for human immunoglobulin (hIg) and the isotype levels were used as an indicator of myeloma cell growth by elisa. When hIg level reached 10 μg/mL or higher in 2 consecutive measurements after 4 weeks of injection of the tumor cells, the mice were divided into four groups to yield similar mean hIgG levels between groups, each group comprising mice grafted with MM cells from the different patient donors used in each experiment. The four treatment groups were: healthy control group (no myeloma cells injected and no drug treatment), isotype control group (myeloma cells injected and treated with isotype control IgG, 2 mg/kg, i.p., twice weekly), BI505 group (myeloma cells injected and treated with BI505, 2 mg/kg, i.p., twice weekly) and bortezomib group (myeloma cells injected and treated with 1 mg/kg, i.p., twice weekly). In some graphs hIgG levels were normalized to pretreatment (4 weeks) levels and the percent increase or decrease in hIgG levels as a function of treatment and time was analyzed. Normalized data from animals receiving the same treatment (control IgG, BI-505 or bortezomib) but grafted with MM cells from each of the four different patient donors in the two experiments were pooled and statistical difference was assessed by grouped 2-way ANOVA test and Bonferroni's posttest using GraphPad Prism 5 software. Patient myeloma cells were taken after informed consent and with the approval of the local ethics committee. For x-radiography evaluation and quantification of bone mineral density (BMD) mice in the four groups were sacrificed and the implanted human bones were taken out and fixed in 10% formalin solution. Radiographs were taken with an AXR Minishot-100 beryllium source instrument (Associated X-Ray Imaging Corp., Haverhill, Mass., USA) and 100 s exposure at 30 kV. […]
# [1] = test system: endothelial cells (HUVEC, HMVEC); assay: HUVEC and HMVEC apoptosis assay; type: cell-based; conditions: resting or IFN-γ activated HUVEC/HMVEC, antibody cross-linked or not
# Protocol: (FIG. 23G) Antibody-induced endothelial cell apoptosis. HUVEC or HMVEC endothelial cells were incubated with paclitaxel (positive control), BI-505 or isotype control IgG in the presence or absence of cross-linking mAb. Apoptosis was measured by flow-cytometry following staining of cells with Annexin V-AF488.
# Based on BI-505's documented ability to confer Fc:FcγR-dependent antitumor activity in malignant B cells, and a proposed general negative role for complement activation with regard to antibody tolerability (Lim et al.; van der Kolk et al., 2001), direct cytotoxic effects (PCD, ADCC, and CDC) of BI-505 in ICAM-1-expressing human peripheral blood B cells and endothelial cells were examined.
# HUVEC (Cascade Biologics, pool of donors) and HMVEC (Cascade Biologics) were plated in 6-well plates (80 000-120 000 cells/well) in the presence or absence of 200 U/mL IFNγ, in order to induce ICAM-1 expression. Media was changed the day before apoptosis-induction experiments were performed and titrated concentrations of BI-505, enlimomab or isotype control antibody were added to the cells, in the presence or absence of cross-linking Fab (ab′)2 (same as the B-cell protocol). […] Necrotic cells were identified by increased fluorescence in the FL-4 channel and apoptotic cells by increased signal in the FL-1 channel on a flow cytometer (FACSCalibur, BD Bioscience).
# mouse FcγRIV = target: T1, mouse FcγRIV (Mus musculus, UniProt A0A0B4J1G0); assay: BiaCore analysis of BI-505 Fc-variant binding to FcγR
# T1 construct: made in house; host or cells: HEK293E cells (transient)
# T1 sequence (A0A0B4J1G0 21-249): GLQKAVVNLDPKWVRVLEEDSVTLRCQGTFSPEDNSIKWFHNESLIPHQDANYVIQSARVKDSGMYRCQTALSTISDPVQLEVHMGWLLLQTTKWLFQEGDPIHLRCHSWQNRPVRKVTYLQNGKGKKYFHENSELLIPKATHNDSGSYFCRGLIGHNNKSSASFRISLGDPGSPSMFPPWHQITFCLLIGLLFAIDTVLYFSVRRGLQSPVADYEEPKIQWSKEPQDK
# Protocol: (FIG. 20B) BiaCore analysis of BI-505 Fc-variant antibodies binding to mouse FcγRIV.
# (§1) His-tagged human FcγRIIIa and mouse FcγRIV were transiently expressed in HEK293E cells, purified using Ni-NTA chromatography, and characterized by SDS-PAGE and/or Biacore. Surface plasmon resonance (SPR) measurements were performed using a Biacore 3000 instrument. Goat F(ab)′2 α-human-F(ab)′2 fragments (Jackson Laboratories) were immobilized with a CM-5 chip using a standard amine coupling protocol. BI-505 (IgG1) and IgG4 or IgG1 297Q variants of BI-505 were diluted to 15 and 60 μg/mL respectively and added to the surface at 10 μL/min for 3 min. His-tagged human FcγRIIIa or mouse FcγRIV was pre-incubated with an α-HIS antibody (R&D Systems) at a 2:1 molar ratio before addition to the chip surface, 30 μL/min, for 1 min. After each cycle the surface was regenerated twice with glycine buffer pH 1.7.
# human FcγRIIIa = target: T2, human FcγRIIIa (Homo sapiens, UniProt P08637); assay: as above
# T2 construct: made in house; host or cells: HEK293E cells (transient)
# T2 sequence (P08637 17-254): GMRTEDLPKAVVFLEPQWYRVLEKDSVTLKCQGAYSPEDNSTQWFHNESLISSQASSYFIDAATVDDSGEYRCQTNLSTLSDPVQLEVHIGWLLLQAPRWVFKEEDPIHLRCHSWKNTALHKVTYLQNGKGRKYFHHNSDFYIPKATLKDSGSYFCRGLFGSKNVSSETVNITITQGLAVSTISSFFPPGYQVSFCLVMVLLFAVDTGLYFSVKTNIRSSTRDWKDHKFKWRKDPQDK
# Protocol: (FIG. 20C) BiaCore analysis of BI-505 Fc-variant antibodies binding to human FcγRIIIa.
# as §1
# RPMI-8226 cells = assay: Macrophage ADCP; type: cell-based; conditions: RPMI-8226, human macrophages
# Protocol: (§2) Cultured macrophages were detached and plated in flat 96-well plates at 50 000 cells/well and placed in 37° C. CFSE-stained target cells were incubated with antibodies for up to 1 hr on ice. After washing, the different cell solutions were added to the culture plates containing macrophages at a ratio of 5:1 (Target cells:Macrophages). Thereafter, the culture plates were incubated at 37° C. for 1-2 hr (primary patient MM cells) or 16 hr (RPMI-8226 cells). The percentage of macrophages that had phagocytosed tumor cells (CFSE^+, CD206^+) per total analyzed macrophages was determined following gating and acquisition of 5000 CD206^+ cells/sample.
# (§3) Buffy coats from healthy human donors were ordered through the local blood central at Lund University Hospital and Halmstad Hospital. Peripheral blood mononuclear cells (PBMCs) were first extracted using Ficoll-Paque PLUS (GE Healthcare Life Sciences), followed by isolation of monocytes with CD14 MicroBeads and MACS separation (Miltenyi Biotec). The monocytes were cultured in RPMI 1640 medium with 10% heat-inactivated FBS (Invitrogen) and 25 ng/mL of recombinant human M-CSF (R&D Systems) for 6-14 days, causing differentiation into macrophages. Medium with M-CSF was changed every 2-3 days upon initiation of cultures.
# (§4) RPMI-8226 cells (ATCC) were continuously cultured in RPMI 1640 medium supplemented with 10 mM HEPES, 1 mM sodium pyruvate and 10% FBS. For multiple myeloma cells, freshly isolated bone marrow samples were donated by patients at Lund University Hospital and subsequently processed with Ficoll-Paque PLUS. Negative isolation of malignant plasma cells was then performed using the Plasma Cell Isolation Kit II according to the manufacturer's instructions (Miltenyi Biotec).
# (§5) At least 4 h before co-culture with target cells the cultured macrophages were detached with Accutase (Sigma Aldrich), before plated in flat 96-well plates at 50 000 cells/well and placed in 37° C. […] After washing, the different cell solutions were added to the culture plates containing macrophages at a ratio of 5:1 (Target cells:Macrophages). Thereafter, the culture plates were incubated at 37° C. for 1-2 hr (primary patient MM cells) or 16 hr (RPMI-8226 cells). Next, samples were stained with APC-conjugated anti-CD206 antibody (BD Biosciences), before harvested by scraping the culture plate wells. The resulting cell solutions were then analyzed by flow cytometry, where CD206^+ macrophages were gated and acquired at 5000 cells/sample. A cut-off level identifying CFSE^+, CD206^+ double positive (phagocytic) macrophages was set for each experimental sample series. This level differed between the individual assays since the magnitude of basic (unstimulated) phagocytosis varied (different donors and time-points) among the experiments.
# [2] = test system: primary patient's MM cells; assay: Macrophage ADCP; type: cell-based; conditions: human macrophages
# Protocol: as §2, §3, §4, §5
# [3] = mouse, 2 mg/kg
# Protocol: Blood samples collected from the vena cava were centrifuged at 2500 g for 15 min to obtain serum and the samples were stored at −20° C.
# Sera were prepared from blood samples collected from the vena saphena from 3 animals in each group at different time-points during the course of in vivo experimentation. Briefly, ELISA plates were coated over night with human ICAM-1 protein. The following day, plates were incubated with the serum samples. Biotinylated goat-anti-BI-505 was used for detection of BI-505 in the serum samples. Sera were analysed by ELISA to determine BI-505 trough levels. Trough BI-505 serum concentrations were then plotted as a function of dose and were fitted using five parameter log-log curve and XLfit software (IDBS, Guildford, United Kingdom).
# ARH-77 tumors = assay: SCID/ARH-77 subcutaneous xenograft model; conditions: established ARH-77 tumors
# Protocol: For subcutaneous grafting, 1-5×10^6 tumor cells (RPMI-8226, NCI-H929, EJM, OPM-2, ARH-77, or Daudi) were subcutaneously injected at a volume of 100 μl into the left flank of anesthetized mice as described in the Supplemental Information. […] Treatment with saline, isotype control IgG, bortezomib, lenalidomide, dexamethasone, or BI-505 started on day 5 (RPMI-8226). Treatment with melphalan started on day 10. BI-505 or isotype IgG mAb was administered i.v. at 2 mg/kg/inj twice weekly for 8 weeks; bortezomib at 1 mg/kg/inj once weekly for 8 weeks; lenalidomide orally at 2 mg/kg/inj for 2 cycles consisting of 5 days of treatment and 2 days of wash out; melphalan i.v. at 3 mg/kg/inj once weekly for 8 weeks; and dexamethasone at 6 mg/kg/inj three times weekly for 2 weeks.
# Mice were anaesthetized with a mixture of sevofluran and oxygen prior to myeloma cell inoculation and 1-10×10^6 myeloma cells were then subcutaneously injected in a volume of 100 μl into the left flank. Treatment with antibodies by intraperitoneal injection started either 1 day after cell inoculation (prophylactic model) or when tumors reached approximately 100 mm^3 (established model). Antibodies were administered in 200 μL of PBS. Treatment with PBS only or isotype IgG were used as controls. Macrophages or NK-cells were depleted by i.p. administration of 0.1 ml clodronate liposomes (Clophosome-A, FormuMax, Scientific Inc. Palo Alto, USA) or 20 μl anti-asialo GM1 pCI Ab (CL8955, Cedarlane Laboratories Limited, Canada) respectively, starting one day prior to antibody treatment, followed by administration twice weekly for a total of three weeks, PBS was used as control.
# Tumor size was measured using a digital calliper and tumor volumes were calculated according to the formula width^2×length×0.52, as previously described (Cao et al., 1999).
# Statistical analyses of tumor growth inhibition relative to control antibody treatment were carried out using Kruskal-Wallis nonparametric ANOVA with Dunn's multiple comparisons test or Mann-Whitney non-parametric analysis, as indicated in the figure legends.
Molecule,"binding to mouse FcγRIV, order (mouse FcγRIV)",In vivo serum concentrations [3] [µg/mL],"in vivo antitumor activity of Fc-variants, order (ARH-77 tumors)",also measured
"CC(C)C[C@H](NC(=O)[C@H](Cc1ccccc1)NC(=O)c1cnccn1)B(O)O [bortezomib, reference compound]",–,–,–,"bone osteoclasts (primary patient MM cells; TRAP staining, compared to control-treated mice): reduced numbers of bone osteoclasts; serum human IgG levels (primary patient MM cells; antibody 2 mg/kg or bortezomib 1 mg/kg twice weekly): halted or reduced serum human IgG levels to below pre-treatment levels"
"CC(=O)O[C@H]1C(=O)[C@@]2(C)[C@H]([C@H](OC(=O)c3ccccc3)[C@]3(O)C[C@H](OC(=O)[C@H](O)[C@@H](NC(=O)c4ccccc4)c4ccccc4)C(C)=C1C3(C)C)[C@]1(OC(C)=O)CO[C@@H]1C[C@@H]2O [paclitaxel, reference compound]",–,–,–,cell death in normal cells [1]: induced significant PCD
B1,IgG1 N297Q<IgG4<IgG1,9.6 ± 3,IgG1 N297Q<IgG4<IgG1,binding to human FcγR (human FcγRIIIa): did not bind to human FcγR; ADCP (RPMI-8226 cells): did not confer ADCP; ADCP [2]: did not confer ADCP
B2,IgG1 N297Q<IgG4<IgG1,13 ± 3.1,IgG1 N297Q<IgG4<IgG1,–

# Reference: US9803013B2, “Biological materials and uses thereof” (BioInvent International AB, priority 2005, dated 2017)
